Measured values published in the Human Domainome abundance scans (Beltran et al. 2025).
± gives the uncertainty stated by the source.

B1: Far upstream element-binding protein 1, residues 98 to 169; numbered along this chain, Q96AE4 (parent)
chain: RSVMTEEYKVPDGMVGFIIGRGGEQISRIQQESGCKIQIAPDSGGLPERSCMLTGTPESVQSAKRLLDQIVE

Variants of: B1
Test: abundance fitness (aPCA) (normalised: wild type 0, dead -1); higher = more abundant; growth selection in yeast, the domain comes from the species named
Settings: Homo sapiens

Abundance fitness, by site and new letter:
G20: K -0.14 ± 0.037 | Y -0.279 ± 0.054 | R -0.112 ± 0.024 | V -0.253 ± 0.027 | E 0.002 ± 0.033 | W -0.321 ± 0.033 | T -0.182 ± 0.032 | I -0.284 ± 0.051 | C -0.167 ± 0.038 | F -0.176 ± 0.052 | M -0.174 ± 0.037 | A -0.066 ± 0.026 | S -0.078 ± 0.027 | N -0.115 ± 0.048 | Q -0.178 ± 0.034 | H -0.08 ± 0.048 | D -0.063 ± 0.036
F17: G 0.04 ± 0.022 | K 0.072 ± 0.03 | A 0.045 ± 0.025 | V -0.005 ± 0.024 | W -0.007 ± 0.026 | H -0.003 ± 0.035 | N 0.022 ± 0.038 | C -0.009 ± 0.032 | E 0.084 ± 0.027 | Q 0.044 ± 0.029 | S 0.063 ± 0.024 | R 0.047 ± 0.021 | P 0.01 ± 0.028 | M 0.018 ± 0.032 | L -0.008 ± 0.024 | D 0.015 ± 0.033 | T 0 ± 0.027 | I -0.041 ± 0.04 | Y -0.019 ± 0.038
D12: N 0.032 ± 0.041 | I -0.038 ± 0.051 | R -0.028 ± 0.023 | A 0.019 ± 0.026 | W -0.164 ± 0.032 | Y -0.045 ± 0.045 | Q -0.027 ± 0.031 | K -0.068 ± 0.036 | M -0.067 ± 0.037 | C -0.057 ± 0.038 | H -0.038 ± 0.047 | F -0.066 ± 0.047 | G -0.049 ± 0.026 | V -0.041 ± 0.027 | P -0.009 ± 0.028 | E 0.001 ± 0.03 | S -0.045 ± 0.026 | L -0.064 ± 0.026
T5: S -0.01 ± 0.026 | H -0.055 ± 0.037 | L -0.11 ± 0.026 | I -0.037 ± 0.038 | V -0.049 ± 0.025 | M -0.012 ± 0.034 | R -0.012 ± 0.023 | P -0.301 ± 0.032 | Q -0.016 ± 0.033 | N -0.063 ± 0.041 | W -0.138 ± 0.029 | Y -0.096 ± 0.046
M14: F -0.016 ± 0.044 | G -0.097 ± 0.025 | P -0.27 ± 0.031 | D -0.082 ± 0.037 | C -0.011 ± 0.037 | N -0.105 ± 0.042 | I -0.037 ± 0.043 | W -0.093 ± 0.03 | V -0.01 ± 0.027 | Y -0.025 ± 0.05 | S -0.026 ± 0.026 | H -0.12 ± 0.044 | K -0.066 ± 0.033 | R -0.131 ± 0.023 | L -0.013 ± 0.025 | A -0.007 ± 0.028
R21: H -0.118 ± 0.12 | C -0.119 ± 0.21 | S 0.035 ± 0.14 | V -0.11 ± 0.21 | P -0.027 ± 0.13 | Q 0.046 ± 0.3 | E -0.251 ± 0.28
Y8: G -0.608 ± 0.03 | R -0.216 ± 0.026 | L -0.059 ± 0.03 | E -0.535 ± 0.039 | W -0.059 ± 0.033 | T -0.147 ± 0.037 | M -0.104 ± 0.037 | K -0.127 ± 0.039 | C -0.297 ± 0.054 | V -0.069 ± 0.029 | Q -0.2 ± 0.036 | H 0.024 ± 0.045 | D -0.688 ± 0.057 | I -0.035 ± 0.044 | N -0.426 ± 0.049 | P -0.798 ± 0.053 | F -0.013 ± 0.047 | A -0.221 ± 0.03
Q25: G -0.035 ± 0.022 | C -0.054 ± 0.034 | N -0.107 ± 0.048 | A -0.088 ± 0.027 | M -0.027 ± 0.038 | L -0.108 ± 0.027 | E 0.036 ± 0.03 | D -0.071 ± 0.04 | H -0.021 ± 0.043 | F -0.242 ± 0.054 | K -0.013 ± 0.038
E7: T -0.031 ± 0.21 | F -0.153 ± 0.23 | M -0.281 ± 0.25 | V -0.106 ± 0.14 | G -0.116 ± 0.14 | A -0.085 ± 0.3 | L -0.031 ± 0.32 | W -0.054 ± 0.17 | C 0.061 ± 0.11
I18: D -0.175 ± 0.037 | C -0.145 ± 0.041 | Y -0.21 ± 0.046 | A -0.189 ± 0.026 | W -0.108 ± 0.029 | V -0.031 ± 0.025 | R -0.324 ± 0.024 | Q -0.243 ± 0.035 | G -0.206 ± 0.023 | T -0.175 ± 0.028 | P -0.266 ± 0.031 | E -0.147 ± 0.029 | F -0.036 ± 0.054 | L -0.012 ± 0.027 | S -0.226 ± 0.028 | K -0.264 ± 0.034 | N -0.236 ± 0.055 | M -0.049 ± 0.033
P11: E -0.067 ± 0.031 | L -0.102 ± 0.025 | A -0.081 ± 0.025 | F -0.206 ± 0.046 | M -0.136 ± 0.032 | N -0.125 ± 0.041 | I -0.159 ± 0.038 | D -0.052 ± 0.034 | S -0.112 ± 0.025 | T -0.124 ± 0.028 | V -0.17 ± 0.026 | W -0.185 ± 0.03 | R -0.074 ± 0.023 | Q -0.099 ± 0.032 | G -0.138 ± 0.025 | H -0.162 ± 0.041 | C -0.133 ± 0.033 | Y -0.127 ± 0.042
V10: W -0.193 ± 0.03 | H -0.502 ± 0.046 | G -0.304 ± 0.024 | F -0.091 ± 0.038 | M 0.008 ± 0.034 | E -0.628 ± 0.04 | C -0.078 ± 0.034 | N -0.48 ± 0.055 | S -0.382 ± 0.028 | P -0.265 ± 0.032 | D -0.389 ± 0.038 | K -0.584 ± 0.05 | L -0.018 ± 0.025 | Q -0.581 ± 0.037 | Y -0.198 ± 0.039 | R -0.491 ± 0.026
V15: Y -0.144 ± 0.047 | C -0.124 ± 0.039 | I -0.074 ± 0.041 | P -0.146 ± 0.032 | N -0.213 ± 0.049 | M -0.027 ± 0.036 | D -0.158 ± 0.044 | F 0.011 ± 0.044 | L -0.046 ± 0.026 | R -0.206 ± 0.024 | W -0.084 ± 0.029 | T -0.126 ± 0.032 | Q -0.08 ± 0.035 | H -0.135 ± 0.044 | S -0.059 ± 0.028 | G -0.136 ± 0.027
I19: V 0.012 ± 0.027 | A -0.034 ± 0.027 | M -0.071 ± 0.036 | H -0.06 ± 0.038 | E 0.018 ± 0.032 | K -0.021 ± 0.037 | Q -0.03 ± 0.032 | F -0.048 ± 0.054 | S -0.046 ± 0.027 | C -0.001 ± 0.042 | D -0.094 ± 0.038 | Y -0.068 ± 0.051 | G -0.072 ± 0.025 | P -0.211 ± 0.029 | R -0.038 ± 0.023 | L -0.006 ± 0.027 | W -0.042 ± 0.031 | N -0.036 ± 0.045 | T -0.018 ± 0.03
G22: K -0.001 ± 0.037 | M -0.129 ± 0.039 | Y -0.137 ± 0.045 | C -0.103 ± 0.04 | D 0.005 ± 0.045 | Q -0.014 ± 0.036 | S -0.1 ± 0.028 | N 0.048 ± 0.047 | P -0.151 ± 0.035 | I -0.09 ± 0.048 | H -0.021 ± 0.052 | W -0.15 ± 0.032 | L -0.099 ± 0.028 | E -0.006 ± 0.032 | F -0.105 ± 0.041
K9: F -0.033 ± 0.033 | C -0.1 ± 0.031 | L -0.06 ± 0.023 | N -0.156 ± 0.043 | S -0.108 ± 0.024 | H -0.093 ± 0.041 | M -0.043 ± 0.031 | V -0.098 ± 0.023 | D -0.181 ± 0.032 | I -0.079 ± 0.035 | T -0.091 ± 0.027 | Q -0.033 ± 0.031 | W -0.084 ± 0.026 | Y -0.084 ± 0.037 | A -0.114 ± 0.024 | P -0.112 ± 0.028 | G -0.195 ± 0.023 | R -0.053 ± 0.022 | E -0.216 ± 0.032
E6: F -0.081 ± 0.039 | Q 0.054 ± 0.032 | M -0.01 ± 0.034 | K -0.01 ± 0.032 | G -0.092 ± 0.023 | Y -0.053 ± 0.045 | L -0.033 ± 0.026 | P -0.625 ± 0.039 | C -0.085 ± 0.037 | A -0.14 ± 0.027 | R -0.02 ± 0.023 | W -0.048 ± 0.027 | N -0.177 ± 0.048 | D -0.104 ± 0.04 | H -0.081 ± 0.046 | I -0.07 ± 0.05 | T 0.029 ± 0.03
G16: I -0.144 ± 0.06 | H -0.064 ± 0.048 | Q -0.029 ± 0.033 | A -0.023 ± 0.029 | T -0.054 ± 0.033 | F -0.176 ± 0.059 | N -0.037 ± 0.043 | E 0.009 ± 0.03 | W -0.09 ± 0.03 | R -0.007 ± 0.023 | K -0.028 ± 0.038 | L -0.102 ± 0.029 | Y -0.118 ± 0.058 | V -0.108 ± 0.027 | C -0.083 ± 0.044 | P 0.033 ± 0.034 | M -0.098 ± 0.036 | D 0.018 ± 0.039
G13: H -0.055 ± 0.04 | P -0.019 ± 0.03 | Y 0.012 ± 0.044 | M -0.034 ± 0.036 | T 0.031 ± 0.031 | Q 0.033 ± 0.033 | L -0.079 ± 0.026 | K 0 ± 0.034 | D 0 ± 0.034 | E 0.041 ± 0.032 | I -0.034 ± 0.047 | F -0.123 ± 0.045 | R -0.007 ± 0.023 | W -0.038 ± 0.029 | V -0.218 ± 0.027 | A -0.01 ± 0.026 | S 0.025 ± 0.026
E24: M -0.093 ± 0.041 | I -0.035 ± 0.049 | C -0.082 ± 0.042 | L -0.108 ± 0.03 | F -0.013 ± 0.061 | K -0.035 ± 0.041 | G -0.057 ± 0.025 | S -0.026 ± 0.029 | H 0.026 ± 0.058 | D -0.064 ± 0.046 | N -0.163 ± 0.074 | A -0.032 ± 0.03 | V -0.072 ± 0.028 | T -0.035 ± 0.037 | Q -0.084 ± 0.039 | W 0.171 ± 0.032
G23: I -0.17 ± 0.054 | Y -0.072 ± 0.052 | E -0.011 ± 0.033 | Q -0.062 ± 0.034 | P -0.181 ± 0.033 | R -0.044 ± 0.024 | D -0.051 ± 0.045 | C -0.101 ± 0.035 | M -0.037 ± 0.04 | F -0.179 ± 0.052 | H -0.159 ± 0.058 | A -0.045 ± 0.029 | V -0.157 ± 0.029 | W -0.101 ± 0.031 | N -0.055 ± 0.059 | L -0.174 ± 0.03 | T -0.127 ± 0.038 | S -0.061 ± 0.029
